{"source": "the RNAGym collection of RNA variant scans (doi:10.7554/elife.80360)", "parents": {"B1": {"name": "Hairpin Ribozyme (parent)", "chain": "GUCCUCUUUCACGUGCGCGUGAAAGAGAGAAGUGAACCAGAGAAACACACGUUGUGGUAUAUUACCUGGUA"}}, "data": [{"variants_of": "B1", "assay": "self-cleavage, relative activity (ratio to wild type); higher = more cleavage; co-transcriptional", "values": [{"variant": "U8C G32C", "self-cleavage": 0.0916}, {"variant": "C6A U63C", "self-cleavage": 0.191}, {"variant": "U9G A24C", "self-cleavage": 0.318}, {"variant": "A49C G69U", "self-cleavage": 0.136}, {"variant": "U8C A23U", "self-cleavage": 0.841}, {"variant": "A31C A59C", "self-cleavage": 0.103}, {"variant": "C38U A71C", "self-cleavage": 0.889}, {"variant": "A24C G34U", "self-cleavage": 1.43}, {"variant": "C48G U55G", "self-cleavage": 0.143}, {"variant": "A26C U52A", "self-cleavage": 0.599}, {"variant": "A49G A59C", "self-cleavage": 0.194}, {"variant": "G27C C38G", "self-cleavage": 0.0571}, {"variant": "G51A", "self-cleavage": 1.03}, {"variant": "C10U A39G", "self-cleavage": 0.242}, {"variant": "U20C U33C", "self-cleavage": 0.13}, {"variant": "G56U U62G", "self-cleavage": 0.104}, {"variant": "U14C G57A", "self-cleavage": 0.215}, {"variant": "G13A C16U", "self-cleavage": 1.03}, {"variant": "G17A C66U", "self-cleavage": 0.554}, {"variant": "A22C U63C", "self-cleavage": 0.203}, {"variant": "G29A U60C", "self-cleavage": 0.144}, {"variant": "U14G G69A", "self-cleavage": 0.303}, {"variant": "G17A A28C", "self-cleavage": 0.74}, {"variant": "U55G A71G", "self-cleavage": 0.241}, {"variant": "U58G U63A", "self-cleavage": 0.149}, {"variant": "G42A A59U", "self-cleavage": 0.101}, {"variant": "U33G U70A", "self-cleavage": 0.121}, {"variant": "A39U A61C", "self-cleavage": 0.187}, {"variant": "U14G U70A", "self-cleavage": 0.823}, {"variant": "U33C A39C", "self-cleavage": 0.171}, {"variant": "A36U G56C", "self-cleavage": 0.131}, {"variant": "G32U A39G", "self-cleavage": 0.0986}, {"variant": "A11U C18G", "self-cleavage": 0.812}, {"variant": "U2A", "self-cleavage": 0.259}, {"variant": "U9C C48U", "self-cleavage": 0.0794}, {"variant": "U2A A59G", "self-cleavage": 0.156}, {"variant": "G19A U62G", "self-cleavage": 0.103}, {"variant": "A28U C38A", "self-cleavage": 0.159}, {"variant": "U7A G34A", "self-cleavage": 1.39}, {"variant": "U67G G69A", "self-cleavage": 0.134}, {"variant": "G27U A28U", "self-cleavage": 0.148}, {"variant": "G57C A64C", "self-cleavage": 0.178}, {"variant": "G1U G56C", "self-cleavage": 0.229}, {"variant": "G13C C18A", "self-cleavage": 0.932}, {"variant": "U5G G68C", "self-cleavage": 0}, {"variant": "A22C G54C", "self-cleavage": 0.317}, {"variant": "U20C G34C", "self-cleavage": 1.45}, {"variant": "G17U U53G", "self-cleavage": 0.954}, {"variant": "U8C G68C", "self-cleavage": 0.238}, {"variant": "C12G G13C", "self-cleavage": 0.944}, {"variant": "C10A U20C", "self-cleavage": 0.732}, {"variant": "U14C A28G", "self-cleavage": 0.65}, {"variant": "C3G U63C", "self-cleavage": 0.164}, {"variant": "A39U A45G", "self-cleavage": 0.252}, {"variant": "A59C C65G", "self-cleavage": 0.246}, {"variant": "G32C U63G", "self-cleavage": 0.035}, {"variant": "C4U A39G", "self-cleavage": 0.122}, {"variant": "C16G G57A", "self-cleavage": 0.0803}, {"variant": "A24U U52C", "self-cleavage": 0.723}, {"variant": "C6U A71C", "self-cleavage": 1.05}, {"variant": "C6G A44U", "self-cleavage": 0.148}, {"variant": "G21U G32U", "self-cleavage": 0.1}, {"variant": "G42U A59C", "self-cleavage": 0.118}, {"variant": "G51C A59G", "self-cleavage": 0.166}, {"variant": "U9G G34U", "self-cleavage": 1.15}, {"variant": "U14A A35G", "self-cleavage": 0.956}, {"variant": "G15U C38G", "self-cleavage": 0.149}, {"variant": "C18G G68A", "self-cleavage": 0.268}, {"variant": "C16U", "self-cleavage": 1.04}, {"variant": "G27A A39G", "self-cleavage": 0.121}, {"variant": "U20G A35C", "self-cleavage": 0.976}, {"variant": "C16G C46A", "self-cleavage": 0.224}, {"variant": "C16A A24C", "self-cleavage": 0.71}, {"variant": "G1U A71G", "self-cleavage": 0.115}, {"variant": "A49U U60A", "self-cleavage": 0.281}, {"variant": "A31U U33C", "self-cleavage": 0.0766}, {"variant": "A36G A59C", "self-cleavage": 0.102}, {"variant": "G34A A59U", "self-cleavage": 0.203}, {"variant": "C16A U60C", "self-cleavage": 0.836}, {"variant": "C46U A71C", "self-cleavage": 0.151}, {"variant": "C37A U55A", "self-cleavage": 0.121}, {"variant": "A22U A28G", "self-cleavage": 1.13}, {"variant": "C16G G32A", "self-cleavage": 0.179}, {"variant": "U52C G69U", "self-cleavage": 0.21}, {"variant": "A26C U33G", "self-cleavage": 0.0995}, {"variant": "C4G G15U", "self-cleavage": 0.185}, {"variant": "U14G A59G", "self-cleavage": 0.121}, {"variant": "G40C A64U", "self-cleavage": 0.125}, {"variant": "C12U C18U", "self-cleavage": 0.978}, {"variant": "A36C U70G", "self-cleavage": 0.671}, {"variant": "G25U A26U", "self-cleavage": 0.542}, {"variant": "G27C U55G", "self-cleavage": 0.113}, {"variant": "U20G G54C", "self-cleavage": 0.321}, {"variant": "U9C C46G", "self-cleavage": 0.167}, {"variant": "G17A A26G", "self-cleavage": 1.01}, {"variant": "C10U U52A", "self-cleavage": 0.761}, {"variant": "U2C C48U", "self-cleavage": 0.0586}, {"variant": "C12A A59C", "self-cleavage": 0.149}, {"variant": "A24U C38G", "self-cleavage": 0.135}, {"variant": "A28G A45C", "self-cleavage": 0.279}, {"variant": "U20G U53C", "self-cleavage": 0.633}, {"variant": "G17A G42A", "self-cleavage": 0.222}, {"variant": "G17A A36C", "self-cleavage": 0.607}, {"variant": "A36G A47U", "self-cleavage": 0.127}, {"variant": "U9C U52C", "self-cleavage": 0.6}, {"variant": "U2C U20G", "self-cleavage": 0.0615}, {"variant": "U8G A26C", "self-cleavage": 0.25}, {"variant": "C38G U62C", "self-cleavage": 0.236}, {"variant": "A36C A47G", "self-cleavage": 0.0823}, {"variant": "G40U C50G", "self-cleavage": 0.136}, {"variant": "C3A G15U", "self-cleavage": 0.761}, {"variant": "A22C G69U", "self-cleavage": 0.152}, {"variant": "G1C C65U", "self-cleavage": 0.188}, {"variant": "C3G C12A", "self-cleavage": 0.254}, {"variant": "C38G G56C", "self-cleavage": 0.0901}, {"variant": "G27C A43G", "self-cleavage": 0.107}, {"variant": "C3G A23G", "self-cleavage": 0.126}, {"variant": "U55G U58A", "self-cleavage": 0.199}, {"variant": "G29C C48A", "self-cleavage": 0.136}, {"variant": "G1A A36G", "self-cleavage": 0.088}, {"variant": "A35C U67A", "self-cleavage": 0.301}, {"variant": "U20C C37A", "self-cleavage": 0.426}, {"variant": "A30G G32C", "self-cleavage": 0.106}, {"variant": "C12A A22C", "self-cleavage": 0.575}, {"variant": "G19A A28G", "self-cleavage": 0.934}, {"variant": "G40U U53C", "self-cleavage": 0.344}, {"variant": "A39G U55G", "self-cleavage": 0.12}, {"variant": "C16A G54U", "self-cleavage": 0.595}, {"variant": "G19U G29A", "self-cleavage": 0.111}, {"variant": "U8G U20A", "self-cleavage": 0.353}, {"variant": "G29A G56U", "self-cleavage": 0.111}, {"variant": "C38U G69A", "self-cleavage": 0.138}, {"variant": "U8A G32U", "self-cleavage": 0.166}, {"variant": "U20C A61C", "self-cleavage": 0.138}, {"variant": "G25U A61U", "self-cleavage": 0.185}, {"variant": "A24U G69A", "self-cleavage": 0.327}, {"variant": "A61C C65A", "self-cleavage": 0.165}, {"variant": "A30U C46U", "self-cleavage": 0.0965}, {"variant": "G32A C50G", "self-cleavage": 0.179}, {"variant": "G42U U62C", "self-cleavage": 0.149}, {"variant": "G21C U63A", "self-cleavage": 0.0855}, {"variant": "A30C G32C", "self-cleavage": 0.12}, {"variant": "A44G C50G", "self-cleavage": 0.164}, {"variant": "U20G C65A", "self-cleavage": 0.895}, {"variant": "U7A C48U", "self-cleavage": 0.0656}, {"variant": "C18A U58C", "self-cleavage": 1.07}, {"variant": "A26C A41G", "self-cleavage": 0.633}, {"variant": "A22G G40A", "self-cleavage": 0.272}, {"variant": "A26U C66G", "self-cleavage": 0.16}, {"variant": "C38U C46A", "self-cleavage": 0.182}, {"variant": "A28U A44C", "self-cleavage": 0.179}, {"variant": "C12A G34C", "self-cleavage": 1.17}, {"variant": "G13C A64C", "self-cleavage": 0.149}, {"variant": "U7G A30C", "self-cleavage": 0.0485}, {"variant": "A28U C50U", "self-cleavage": 0.1}, {"variant": "C4G A26G", "self-cleavage": 0.16}, {"variant": "C10U A45C", "self-cleavage": 0.159}, {"variant": "U14G C50A", "self-cleavage": 0.307}, {"variant": "U60C C66U", "self-cleavage": 0.451}, {"variant": "U9A C10G", "self-cleavage": 0.519}, {"variant": "U52G U60C", "self-cleavage": 1.08}, {"variant": "U8A C65U", "self-cleavage": 0.258}, {"variant": "C6G U52G", "self-cleavage": 0.583}, {"variant": "G19U U60A", "self-cleavage": 0.804}, {"variant": "C18A A41G", "self-cleavage": 0.76}, {"variant": "U63G G68C", "self-cleavage": 0.169}, {"variant": "G13A U14C", "self-cleavage": 0.855}]}]}
